In US20190322728A1 (PROTHENA BIOSCIENCES, published 2019):
Residue numbers refer to the chain shown, from its start.

T1: tau peptide, residues 25-44 of SEQ ID NO: 1 (human)
T1 construct: Proteolytic fragment (LysC and trypsin digests) of rTau, precipitated by 16B5 and identified by MALDI-TOF/TOF
T1 peptide: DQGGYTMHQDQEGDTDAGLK

T2: tau peptide, residues 24-44 of SEQ ID NO: 1 (human)
T2 construct: Tryptic fragment of rTau, precipitated by 16B5 and identified by MALDI-TOF/TOF
T2 peptide: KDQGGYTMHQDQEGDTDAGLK

B1: 16B5 monoclonal antibody (mouse) (antibody, V domains shown)
VH: QIQLVQSGPELKKPGETVKISCKASGYPFTYHGMDWVKQAPWGGLEWMGWINTYSGVPTYADDFKGRFAFSLETSVGTAYLQINNLKNEDTATYFCARRRDFTMDFWGQGTSVTVSS
VL: NIVLSQSPSSLAVSPGEKVTMSCKSSQSLLNSRTRKNYLAWFQQKPGQSPKLLIYWASTRESGVPDRFTGSGSGTDFTLTISSVQAEDLAVYYCKQSYTLRTFGGGTNLEIKR
notes: Mouse monoclonal antibody; The control 6F10 is called an IgG1 isotype control; also called Murine 16B5; pan antibody 16B5
B2: humanized 16B5, version H1L2 (antibody, V domains shown)
VH: QVQLVQSGSELKKPGASVKVSCKASGYPFTYHGMDWVRQAPGQGLEWMGWINTYSGVPTYADDFKGRFVFSLDTSVSTAYLQISSLKAEDTAVYFCARRRDFTMDFWGQGTTVTVSS
VL: NIVLTQSPDSLAVSLGERATINCKSSQSLLNSRTRKNYLAWFQQKPGQSPKLLIYWASTRESGVPDRFSGSGSGTDFTLTISSLQAEDVAVYYCKQSYTLRTFGGGTKVEIKR
B3: humanized 16B5, version H1L4 (antibody, V domains shown)
VH: B2 VH
VL: B2 VL with D9S
B4: humanized 16B5, version H2L2 (antibody, V domains shown)
VH: B2 VH with Q1E
VL: B2 VL
B5: humanized 16B5, version H2L4 (antibody, V domains shown)
VH: B2 VH with Q1E
VL: B2 VL with D9S
B6: humanized 16B5, version H1L1 (antibody, V domains shown)
VH: B2 VH
VL: B2 VL with S49P

Experiments:
[1] = molecular target: T3, tau deletion mutant Δ25-44 (printed A25-44) (human, UniProt P10636 1-758); test: Western blot of bacterial lysate
T3 construct: Deletion mutant of rTau, tested in clarified bacterial lysate; The limits of the pieces are derived from the printed deletion

[2] = molecular target: T4, tau deletion mutant Δ30-39 (printed A30-39) (human, UniProt P10636 1-758); test: Western blot of bacterial lysate
T4 construct: Deletion mutant of rTau, tested in clarified bacterial lysate; The limits of the pieces are derived from the printed deletion

[3] = molecular target: T5, tau deletion mutant Δ23-32 (printed A23-32) (human, UniProt P10636 1-758); test: Western blot of bacterial lysate, antibody at 0.2 µg/mL
T5 construct: Deletion mutant of rTau, tested in clarified bacterial lysate; The limits of the pieces are derived from the printed deletion

[4] = molecular target: T6, rTau: human tau with 4 microtubule binding repeats and no N-terminal inserts, containing a P301L mutation (human, UniProt P10636 2-758); test: Western blot of bacterial lysate, 16B5 at 0.2 ug/mL
T6 construct: Expressed in E. coli and purified; It is the parent of the deletion mutants; also called full-length Tau; wild-type Tau (WT) of the blots

[5] = molecular target: T7, tau deletion mutant Δ5-24 (printed A5-24) (human, UniProt P10636-6 1-383); test: as above
T7 construct: Deletion mutant of rTau, tested in clarified bacterial lysate; The limits of the pieces are derived from the printed deletion

[6] = molecular target: T1, tau peptide, residues 25-44 of SEQ ID …; test: precipitation of protease fragments of rTau with 16B5, HPLC, MALDI-TOF/TOF
[7] = molecular target: T2, tau peptide, residues 24-44 of SEQ ID …; test: as above
[8] = molecular target: recombinant purified hTau-P301L (human) (UniProt P10636); test: SPR (Biacore T200), antibody held by a capture antibody on a CM5 chip, hTau-P301L as analyte
recombinant purified hTau-P301L (human), sequence (P10636 other isoform, or with tags, fused parts or gaps P301L P301L): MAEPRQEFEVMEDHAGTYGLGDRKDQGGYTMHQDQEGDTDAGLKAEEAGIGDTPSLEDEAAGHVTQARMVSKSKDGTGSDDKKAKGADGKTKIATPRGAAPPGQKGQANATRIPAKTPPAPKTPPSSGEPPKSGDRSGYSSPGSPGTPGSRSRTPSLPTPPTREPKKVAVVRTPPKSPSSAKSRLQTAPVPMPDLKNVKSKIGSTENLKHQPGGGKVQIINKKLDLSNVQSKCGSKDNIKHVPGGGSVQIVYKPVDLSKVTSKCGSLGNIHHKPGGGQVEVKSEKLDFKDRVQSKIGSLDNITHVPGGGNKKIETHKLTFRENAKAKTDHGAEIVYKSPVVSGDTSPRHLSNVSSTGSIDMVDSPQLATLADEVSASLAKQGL

T3 sequence (P10636 other isoform, or with tags, fused parts or gaps mutant): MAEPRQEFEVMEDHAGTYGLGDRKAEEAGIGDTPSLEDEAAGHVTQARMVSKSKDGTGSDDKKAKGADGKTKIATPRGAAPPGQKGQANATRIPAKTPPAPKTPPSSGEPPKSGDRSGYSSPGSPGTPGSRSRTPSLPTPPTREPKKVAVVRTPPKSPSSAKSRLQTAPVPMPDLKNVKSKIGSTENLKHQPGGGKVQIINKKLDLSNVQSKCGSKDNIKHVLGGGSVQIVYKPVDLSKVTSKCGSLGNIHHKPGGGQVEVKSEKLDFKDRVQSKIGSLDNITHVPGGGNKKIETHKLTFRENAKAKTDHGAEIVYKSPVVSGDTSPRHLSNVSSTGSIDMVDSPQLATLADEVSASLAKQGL
T5 sequence (P10636 other isoform, or with tags, fused parts or gaps mutant): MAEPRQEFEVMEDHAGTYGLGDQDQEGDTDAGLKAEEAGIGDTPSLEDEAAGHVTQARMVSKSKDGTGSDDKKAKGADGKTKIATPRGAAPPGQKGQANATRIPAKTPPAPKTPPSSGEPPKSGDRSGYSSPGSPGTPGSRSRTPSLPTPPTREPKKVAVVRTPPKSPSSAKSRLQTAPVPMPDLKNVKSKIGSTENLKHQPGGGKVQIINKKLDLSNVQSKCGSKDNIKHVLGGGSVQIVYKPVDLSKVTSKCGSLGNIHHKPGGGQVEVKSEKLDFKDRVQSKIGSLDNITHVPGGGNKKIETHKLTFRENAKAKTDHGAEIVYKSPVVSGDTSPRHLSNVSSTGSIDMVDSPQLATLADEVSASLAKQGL
T6 sequence (P10636 other isoform, or with tags, fused parts or gaps P301L P301L limits assumed): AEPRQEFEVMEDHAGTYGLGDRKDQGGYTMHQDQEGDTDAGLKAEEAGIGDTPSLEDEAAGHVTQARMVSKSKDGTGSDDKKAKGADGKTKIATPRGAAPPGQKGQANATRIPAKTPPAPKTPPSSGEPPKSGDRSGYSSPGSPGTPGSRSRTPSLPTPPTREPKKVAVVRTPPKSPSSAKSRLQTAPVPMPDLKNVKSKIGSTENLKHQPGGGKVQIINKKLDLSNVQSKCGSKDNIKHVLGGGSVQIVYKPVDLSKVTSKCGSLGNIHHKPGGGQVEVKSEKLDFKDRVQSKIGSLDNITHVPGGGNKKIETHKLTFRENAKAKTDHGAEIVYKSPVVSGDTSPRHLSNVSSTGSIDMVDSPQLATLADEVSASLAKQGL
T4 sequence (P10636 other isoform, or with tags, fused parts or gaps mutant): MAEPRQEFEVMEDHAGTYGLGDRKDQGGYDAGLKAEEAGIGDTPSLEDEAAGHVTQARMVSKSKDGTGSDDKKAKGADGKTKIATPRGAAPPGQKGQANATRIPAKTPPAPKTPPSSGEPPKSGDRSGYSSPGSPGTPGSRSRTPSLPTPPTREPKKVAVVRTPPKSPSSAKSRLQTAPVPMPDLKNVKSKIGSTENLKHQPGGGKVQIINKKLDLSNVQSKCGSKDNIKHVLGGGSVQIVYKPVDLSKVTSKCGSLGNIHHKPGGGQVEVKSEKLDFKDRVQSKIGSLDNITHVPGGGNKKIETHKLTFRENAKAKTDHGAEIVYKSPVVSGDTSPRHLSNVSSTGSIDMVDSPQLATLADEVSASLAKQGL
T7 sequence (P10636 other isoform, or with tags, fused parts or gaps mutant): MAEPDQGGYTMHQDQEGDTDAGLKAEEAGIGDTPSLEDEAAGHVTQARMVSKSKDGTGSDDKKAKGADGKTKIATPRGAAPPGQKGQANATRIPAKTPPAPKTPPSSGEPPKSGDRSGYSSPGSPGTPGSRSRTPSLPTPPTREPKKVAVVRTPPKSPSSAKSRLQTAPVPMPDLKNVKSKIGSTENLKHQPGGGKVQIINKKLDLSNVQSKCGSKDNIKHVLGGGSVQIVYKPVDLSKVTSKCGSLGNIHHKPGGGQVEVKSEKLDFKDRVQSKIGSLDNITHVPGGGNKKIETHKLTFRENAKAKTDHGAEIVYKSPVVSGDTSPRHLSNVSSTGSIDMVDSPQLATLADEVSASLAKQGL

Row | Binder | Kd [8] [pM] | koff [8] [s⁻¹] | kon [8] [M⁻¹ s⁻¹] | further results
1 | B1 | 2.32 | – | – | binding result [1]: no binding (tested: 0.2 µg/mL antibody); binding result [2]: no binding (tested: 0.2 µg/mL antibody); binding result [3]: binds; binding result [4]: binds; binding result [5]: binds; binding result [6]: binds; binding result [7]: binds
2 | B2 | 2.94 | 0.000131 | 4.47e+07 | –
3 | B3 | 3.15 | 0.000137 | 4.36e+07 | –
4 | B4 | 2.86 | 0.000138 | 4.85e+07 | –
5 | B5 | 3.95 | 0.000171 | 4.34e+07 | –
6 | B6 | – | – | – | dissociation constant relative to the chimeric antibody (fold of chimeric 16B5) [8]: 0.33
